In the DeepSol protein solubility set:

Test: soluble on expression in E. coli; label from the status in PepcDB or PDB records

| Sequence | soluble on expression in E. coli |
| --- | --- |
| MSEEIKKIEEVAEQDKAPKVPTTEPPVDVPAPVTEEAPKVEEAVAEIAAPAAAEGETATAAAAAPEEKKKSGGVARRFTFNKRWGKHRDAEASTPKEPEAPKDPKEDVLGWIAQQIPQAVHKANYQVIDWVQKTAIPEEGERKTIPGKDQATTRNQFIGFFKDGDVLAKLANALEPGAVEVAAAEENADAAAQKEVQKKNIDAFGAWAQKTLGTEAAPVTNEDLLEKGKAGYTAVFQTLWQLGVQAKEKFDKEGFNVDTIVQLANSVVKSGLLTTILGFFRRNRQAAAAVEEPKDETAAAEGAGEAKEEGATGEVADTADEPVAVKQETSAPAAVAAN | not soluble |
| MSLNGFCARLRAITFNERLKMKIAVLLSGGVDSSYSAYSLKEQGHELVGIYLKLHASEKKHDLYIKNAQKACEFLGIPLEVLDFQKDFKSAVYDEFINAYEEGQTPNPCALCNPLMKFGLALDHALKLGCEKIATGHYARVKEIDKVSYIQEALDKTKDQSYFLYALEHEVIAKLVFPLGDLLKKDIKPLALNAMPFLGTLETYKESQEICFVEKSYIDTLKKHVEVEKEGVVKNLQGEVIGTHKGYMQYTIGKRKGFSVKGALEPHFVVGIDAKKNELIVGKKEDLATHSLKAKNKSLTKDFKDGEYFIKARYRSVPTKAFVSLKDGMIEVEFKEPFYGVAKGQALVVYKDDILLGGGVIVEGHHHHHH | soluble |
| MKQSTIALALLPLLFTPVTKADIELTQSPSSLAVSAGEKVTMSCKSSQSLLNSGNQKNYLAWYQQKPGLPPKLLIYGASTRESGVPDRFTGSGSGTDFTLTISSVQAEDLAVYYCQNDHSYPLTFGAGTKLEIKRTVAAPSVFIFPPSDEQLKSGTASVVCLLNNFYPREAKVQWKVDNALQSGNSQESVTEQDSKDSTYSLSSTLTLSKADYEKHKVYACEVTHQGLSSPVTKSFNRGEC | soluble |
| TPYRAMYQYRPQNEDELELREGDRVDVMQQCDDGWFVGVSRRTQKFGTFPGNYVAPV | soluble |
| MKDLKKIESYLDKLRIKEKDGEERKIYAEVLDGRTLKTLYKLSAKGYITAMGGVISTGKEANVFYADGVFDGKPVAMAVKIYRIETSEFDKMDEYLYGDERFDMRRISPKEKVFIWTEKEFRNLERAKEAGVSVPQPYTYMKNVLLMEFIGEDELPAPTLVELGRELKELDVEGIFNDVVENVKRLYQEAELVHADLSEYNIMYIDKVYFIDMGQAVTLRHPMAESYLERDVRNIIRFFSKYGVKADFEEMLKEVKGE | soluble |
| MGSDKIHHHHHHMNDNAERRYRRPSYRITLDEQDITPRINGRLIRLRLRSQRGLEADQLDLTLSDHDGALALPRRGVSLRVAYGWQDDGLIDKGLFTVDEVQHSGTPDQITIRARSADMRGRLPGKRSRSWHDITVGEIIDTIAKRHTLEPVVGDTVRGIRIGHIDQTEESDLNFLTRLGERFDAVATVKAARLLFTQAGEALTASGLAMPSVTLTRRDGDRHRYSATDRDTYTGVIAYWNDKANAKRQRVIAGSDEDAKELRPTYATEADALDAAKAEWRRVQRGEATFKITLAYGRADILPESPLTASGFKPDIDATPWLVTEVEDSLDDNGFGTRVQCEVRGGAAET | not soluble |
| QQQHKVLKTVKVTEQLKHCSEILKEMLAKKHLPYAWPFYNPVDADALGLHNYYDVVKNPMDLGTIKGKMDNQEYKDAYEFAADVRLMFMNCYKYNPPDHEVVAMARTLQDVFELHFAKIPDEPIES | soluble |
| MSLEISNRLKSISEVMDRCEIAADIGTDHAYLPIYLIKNNLCKRFIASDVNAGPLKKAINNINKYKLEDKIECRLGSGLNVLKLEEVDVVVIAGMGGNLIRDIIEERLDIFKKLKYAVLQPVQNPEILREYLIKRGFNIIEEQLCIDESKYYEIIKVCYDSKIEDKDDVYYEIGDKLIDMKHPLLKEYINYKIRKYDKIYKNISEESLNALSRKNELSIKIRKLKELLSCLEGHHHHHH | soluble |
| MHQFTSKQDFCHWFNQFQHPQLVENWADIHGVVTITAQGEVKITLPFASNELQRTLQEWIQQQQAFKAVAAFPYHIELGVKALETQVSNAVKGVKNIIAVSSAKGGVGKSTTAVNLALAIAQSGAKVGLLDADIYGPSVPMMLGQEDAKPEVRDGKWMEPIFAHGIYTHSIGYLVNKSEAAIWRGPMASKALAQLLNETDWPELDYLVIDMPPGTGDIQLTLSQQIPVTGTVLVTTPQDLALADARKGAAMFNKVNVPVVGVVENMSYHICSQCGATEHIFGMGGAEKMSQEFGLALLGQIPLHISMREDIDAGVPTVVRRPDSEHSGYYKQLADRVCSTMFWQGKAKPDAISFTMVNLEHHHHHH | not soluble |
| MGEVFKMDGLASTILEVHKPAKLEDIPDEDPIAIILALKWLEYLCERAGVENVSDILDFYYMLGWLGDKALAKLLKFLKGIKVDEENVVEGSGKLNITDHIISLLFIERLNGKKISAELLDKIEWELRKIKKGAEQFYGI | not soluble |
| MSSSTTDDDSCSYFFFRQACLIPTPSVPTHPSVSIKIYPPFAEFIDFGGASRHILTNNGTCRIVFKVKCSNNLVFKVSPVYAFLDPGATAELQVLRREGPPKHDKLIISLKEAKKGDKDPRVTFNDSTHTTHKHILPLLTRIVEEQ | not soluble |
| MRFITETELRDLYKAEPFTAYTLEPRTKLTPEARQFLVDRGIKLAEAQDCKSKSTGNGKSGTEQESWNVLRLRRRMESLESLFLMVGANLLSGGSTVLAEEVFALGRCFSEVKKTAWEQTSPVNLQFQDWSEAEMKNCSTYLGKHFDITEFHVRTENGAAIASLNHLRATLRELESAVLEAYWDEEFNVCSRQDLIEKINLIMNILCVMIWKCLGGQQCKT | not soluble |
| MTTFTHINSQGEANMVDVSAKAETVREARAEAIVTMSKETLSMIVEGKHHKGDVFATARIAGIQAAKRTWELIPLCHPLLLSKVEVNLEPLLETNQVRIQSLCKLTGKTGVEMEALTAASVAALTIYDMCKAVQKDIVIEHVRLLEKSGGKSGHFIAEEK | soluble |
| MDNGDWGYMMTDPVTLNVGGHLYTTSLTTLTRYPDSMLGAMFGGDFPTARDPQGNYFIDRDGPLFRYVLNFLRTSELTLPLDFKEFDLLRKEADFYQIEPLIQCLNDPKPLYPMDTFEEVVELSSTRKLSKYSNPVAVIITQLTITTKVHSLLEGISNYFTKWNKHMMDTRDCQVSFTFGPCDYHQEVSLRVHLMEYITKQGFTIRNTRVHHMSERANENTVEHNWTFCRLARKTDD | not soluble |
| GMQQSEHFSFGEQTEIEDIGGGLKRQMLGFNHELMAVKIWFDKGAEGYVHAHRHSQVSYVVEGEFHVNVDGVIKVLTAGDSFFVPPHVDHGAVCPTGGILIDTFSPAREDFVEGLS | soluble |
| MGMTPAQEVISYLINAAIGVSSTSSRPFRDAPPGCPDTLLVQCVKWFFRNGDFSNFYEDIKYLVKGKSLAGFVNSHLMVCPELIRIIVENADNKSRRVKFLIKKDEFAICVGRGRLITFPFTKDMEEPACILAEYTELLFSFPHYDIEYSFEGSYGLSRNMDLTETHIMLLSKLTPSMFAEKARPRRVRERNGRLAVRMSRISWNRSGLYYNAIIQFFESLRGTVITQGEQPLCEKSVTYQEMLKHTLAHPGVHQLDSRPNFQWKISMRKTRKND | not soluble |
| MGSDKIHHHHHHMIFYCALSIGRVFSATIKTCPNVHQVHHVVLTIEMSINMQNNEQTEYKTVRGLTRGLMLLNMLNKLDGGASVGLLAELSGLHRTTVRRLLETLQEEGYVRRSPSDDSFRLTIKVRQLSEGFRDEQWISALAAPLLGDLLREVVWPTDVSTLDVDAMVVRETTHRFSRLSFHRAMVGRRLPLLKTASGLTWLAFCPEQDRKELIEMLASRPGDDYQLAREPLKLEAILARARKEGYGQNYRGWDQEEKIASIAVPLRSEQRVIGCLNLVYMASAMTIEQAAEKHLPALQRVAKQIEEGVESQAILVAGRRSGMHLR | not soluble |
| MEGLQRSTISFRRQGSSGIVFDDRLIAELNKSGNNEQKDESQRDEQPKPMSESSEQVKPIDEKDKLRPIKTGGGAPGGIERSRSNGGGAQRHHRTTGRVSPAVDPPSPRISSCGCCSAFGKNPPGKKVNPRKRPPKRRSR | not soluble |
